Experimental data as given in the Human Domainome abundance scans (Beltran et al. 2025).
± gives the uncertainty stated by the source.

B1: SAM and SH3 domain-containing protein 1, residues 630 to 700; numbered along this chain, O94885 (parent)
chain: GRPPQPKSVEDLLDRINLKEHMPTFLFNGYEDLDTFKLLEEEDLDELNIRDPEHRAVLLTAVELLQEYDSN

Variants of: B1
Assay: abundance fitness (aPCA) (normalised: wild type 0, dead -1); higher = more abundant; growth selection in yeast, the domain comes from the species named
Settings: Homo sapiens

**Q.** For GRPPQPKSVEDLLDRINLKEHKPTFLFNGYEDLDTFKLLEEEDLDELNIRDPEHRAVLLTAVELLQEYDSN [M22K], which abundance fitness is on record?
**A.** -0.252 ± 0.055

**Q.** Which abundance fitness does the source give for GRPPQPKSVEDLLDRINLKEHIPTFLFNGYEDLDTFKLLEEEDLDELNIRDPEHRAVLLTAVELLQEYDSN [M22I] here?
**A.** 0.131 ± 0.039

**Q.** With GRPPQPKSVEDLLDRINLKEHLPTFLFNGYEDLDTFKLLEEEDLDELNIRDPEHRAVLLTAVELLQEYDSN [M22L] as the variant, how does the abundance fitness read?
**A.** 0.377 ± 0.032

**Q.** With GRPPQPKSVEDLLDRINLKEHEPTFLFNGYEDLDTFKLLEEEDLDELNIRDPEHRAVLLTAVELLQEYDSN [M22E] as the variant, how does the abundance fitness read?
**A.** -0.213 ± 0.054

**Q.** For GRPPQPKSVEDLLDRINLKEHPPTFLFNGYEDLDTFKLLEEEDLDELNIRDPEHRAVLLTAVELLQEYDSN [M22P], which abundance fitness is on record?
**A.** -0.999 ± 0.087

**Q.** Which abundance fitness does the source give for GRPPQPKSVEDLLDRINLKEHDPTFLFNGYEDLDTFKLLEEEDLDELNIRDPEHRAVLLTAVELLQEYDSN [M22D] here?
**A.** -0.749 ± 0.077

**Q.** With GRPPQPKSVEDLLDRINLKEHSPTFLFNGYEDLDTFKLLEEEDLDELNIRDPEHRAVLLTAVELLQEYDSN [M22S] as the variant, how does the abundance fitness read?
**A.** -0.375 ± 0.04

**Q.** With GRPPQPKSVEDLLDRINLKEHQPTFLFNGYEDLDTFKLLEEEDLDELNIRDPEHRAVLLTAVELLQEYDSN [M22Q] as the variant, how does the abundance fitness read?
**A.** -0.366 ± 0.056

**Q.** With GRPPQPKSVEDLLDRINLKEHCPTFLFNGYEDLDTFKLLEEEDLDELNIRDPEHRAVLLTAVELLQEYDSN [M22C] as the variant, how does the abundance fitness read?
**A.** -0.135 ± 0.043

**Q.** With GRPPQPKSVEDLLDRINLKEHFPTFLFNGYEDLDTFKLLEEEDLDELNIRDPEHRAVLLTAVELLQEYDSN [M22F] as the variant, how does the abundance fitness read?
**A.** 0.081 ± 0.043

**Q.** With GRPPQPKSVEDLLDRINLKEHNPTFLFNGYEDLDTFKLLEEEDLDELNIRDPEHRAVLLTAVELLQEYDSN [M22N] as the variant, how does the abundance fitness read?
**A.** -0.503 ± 0.056

**Q.** With GRPPQPKSVEDLLDRINLKEHGPTFLFNGYEDLDTFKLLEEEDLDELNIRDPEHRAVLLTAVELLQEYDSN [M22G] as the variant, how does the abundance fitness read?
**A.** -0.346 ± 0.042

**Q.** With GRPPQPKSVEDLLDRINLKEFMPTFLFNGYEDLDTFKLLEEEDLDELNIRDPEHRAVLLTAVELLQEYDSN [H21F] as the variant, how does the abundance fitness read?
**A.** -0.134 ± 0.046

**Q.** For GRPPQPKSVEDLLDRINLKEMMPTFLFNGYEDLDTFKLLEEEDLDELNIRDPEHRAVLLTAVELLQEYDSN [H21M], which abundance fitness is on record?
**A.** -0.085 ± 0.046

**Q.** Which abundance fitness does the source give for GRPPQPKSVEDLLDRINLKEVMPTFLFNGYEDLDTFKLLEEEDLDELNIRDPEHRAVLLTAVELLQEYDSN [H21V] here?
**A.** -0.607 ± 0.056

**Q.** For GRPPQPKSVEDLLDRINLKEDMPTFLFNGYEDLDTFKLLEEEDLDELNIRDPEHRAVLLTAVELLQEYDSN [H21D], which abundance fitness is on record?
**A.** -0.889 ± 0.097

**Q.** With GRPPQPKSVEDLLDRINLKEWMPTFLFNGYEDLDTFKLLEEEDLDELNIRDPEHRAVLLTAVELLQEYDSN [H21W] as the variant, how does the abundance fitness read?
**A.** -0.248 ± 0.047

**Q.** For GRPPQPKSVEDLLDRINLKEKMPTFLFNGYEDLDTFKLLEEEDLDELNIRDPEHRAVLLTAVELLQEYDSN [H21K], which abundance fitness is on record?
**A.** -0.712 ± 0.075

**Q.** Which abundance fitness does the source give for GRPPQPKSVEDLLDRINLKEPMPTFLFNGYEDLDTFKLLEEEDLDELNIRDPEHRAVLLTAVELLQEYDSN [H21P] here?
**A.** -0.798 ± 0.065

**Q.** Which abundance fitness does the source give for GRPPQPKSVEDLLDRINLKECMPTFLFNGYEDLDTFKLLEEEDLDELNIRDPEHRAVLLTAVELLQEYDSN [H21C] here?
**A.** -0.536 ± 0.058

**Q.** Which abundance fitness does the source give for GRPPQPKSVEDLLDRINLKEIMPTFLFNGYEDLDTFKLLEEEDLDELNIRDPEHRAVLLTAVELLQEYDSN [H21I] here?
**A.** -0.459 ± 0.056

**Q.** With GRPPQPKSVEDLLDRINLKEAMPTFLFNGYEDLDTFKLLEEEDLDELNIRDPEHRAVLLTAVELLQEYDSN [H21A] as the variant, how does the abundance fitness read?
**A.** -0.85 ± 0.068

**Q.** For GRPPQPKSVEDLLDRINLKENMPTFLFNGYEDLDTFKLLEEEDLDELNIRDPEHRAVLLTAVELLQEYDSN [H21N], which abundance fitness is on record?
**A.** -0.689 ± 0.071

**Q.** For GRPPQPKSVEDLLDRINLKEEMPTFLFNGYEDLDTFKLLEEEDLDELNIRDPEHRAVLLTAVELLQEYDSN [H21E], which abundance fitness is on record?
**A.** -0.689 ± 0.09

**Q.** Which abundance fitness does the source give for GRPPQPKSVEDLLDRINLKETMPTFLFNGYEDLDTFKLLEEEDLDELNIRDPEHRAVLLTAVELLQEYDSN [H21T] here?
**A.** -0.685 ± 0.061

**Q.** Which abundance fitness does the source give for GRPPQPKSVEDLLDRINLKESMPTFLFNGYEDLDTFKLLEEEDLDELNIRDPEHRAVLLTAVELLQEYDSN [H21S] here?
**A.** -0.785 ± 0.05

**Q.** For GRPPQPKSVEDLLDRINLKERMPTFLFNGYEDLDTFKLLEEEDLDELNIRDPEHRAVLLTAVELLQEYDSN [H21R], which abundance fitness is on record?
**A.** -0.921 ± 0.056

**Q.** For GRPPQPKSVEDLLDRINMKEHMPTFLFNGYEDLDTFKLLEEEDLDELNIRDPEHRAVLLTAVELLQEYDSN [L18M], which abundance fitness is on record?
**A.** 0.158 ± 0.044

**Q.** For GRPPQPKSVEDLLDRINKKEHMPTFLFNGYEDLDTFKLLEEEDLDELNIRDPEHRAVLLTAVELLQEYDSN [L18K], which abundance fitness is on record?
**A.** -0.77 ± 0.077

**Q.** Which abundance fitness does the source give for GRPPQPKSVEDLLDRINQKEHMPTFLFNGYEDLDTFKLLEEEDLDELNIRDPEHRAVLLTAVELLQEYDSN [L18Q] here?
**A.** -0.652 ± 0.074

**Q.** With GRPPQPKSVEDLLDRINRKEHMPTFLFNGYEDLDTFKLLEEEDLDELNIRDPEHRAVLLTAVELLQEYDSN [L18R] as the variant, how does the abundance fitness read?
**A.** -1.02 ± 0.066

**Q.** For GRPPQPKSVEDLLDRINYKEHMPTFLFNGYEDLDTFKLLEEEDLDELNIRDPEHRAVLLTAVELLQEYDSN [L18Y], which abundance fitness is on record?
**A.** -0.863 ± 0.089

**Q.** With GRPPQPKSVEDLLDRINVKEHMPTFLFNGYEDLDTFKLLEEEDLDELNIRDPEHRAVLLTAVELLQEYDSN [L18V] as the variant, how does the abundance fitness read?
**A.** -0.742 ± 0.052

**Q.** Which abundance fitness does the source give for GRPPQPKSVEDLLDRINPKEHMPTFLFNGYEDLDTFKLLEEEDLDELNIRDPEHRAVLLTAVELLQEYDSN [L18P] here?
**A.** -0.996 ± 0.085

**Q.** For GRPPQPKSVEDLLDRINIKEHMPTFLFNGYEDLDTFKLLEEEDLDELNIRDPEHRAVLLTAVELLQEYDSN [L18I], which abundance fitness is on record?
**A.** -0.716 ± 0.077

**Q.** With GRPPQPKSVEDLLDRINNKEHMPTFLFNGYEDLDTFKLLEEEDLDELNIRDPEHRAVLLTAVELLQEYDSN [L18N] as the variant, how does the abundance fitness read?
**A.** -0.777 ± 0.081

**Q.** With GRPPQPKSVEDLLDRINTKEHMPTFLFNGYEDLDTFKLLEEEDLDELNIRDPEHRAVLLTAVELLQEYDSN [L18T] as the variant, how does the abundance fitness read?
**A.** -0.73 ± 0.06

**Q.** For GRPPQPKSVEDLLDRINWKEHMPTFLFNGYEDLDTFKLLEEEDLDELNIRDPEHRAVLLTAVELLQEYDSN [L18W], which abundance fitness is on record?
**A.** -0.853 ± 0.089
